The text below walks through data of US20090112150A1, “CAVITATION ENHANCED TREATMENT THROUGH LOCAL DELIVERY” (IMARX THERAPEUTICS, INC., priority 2004, published 2009).

This data set is described as follows: Loading of thrombolytic drugs into microbubbles, particle sizing/counting on Accusizer 770. Conditions: MX115 microbubbles. The data set is classed as physicochemical. As to the method: MX115 was activated in the vial. Different concentrations of thrombolytic drugs, Streptokinase (Sigma, Milwaukee, Wis.) and t-PA (Genentech, South San Francisco, Calif.), were added to the vial and incubated with the microbubbles for 5 minutes before analyzing the mixtures using a Model 770 Accusizer (Particle Sizing Systems, Santa Barbara, Calif.). […] As much as 5 mg of the drug could be loaded into the MRX 115 microbubbles.

[1] abbreviates: protein loading in microbubbles 0.010 mg, 5 minutes incubation.
The mark [2] stands for this setting: protein loading in microbubbles 0.1 mg, 5 minutes incubation.
Setting [3] is: protein loading in microbubbles 1 mg, 5 minutes incubation.
The mark [4] stands for this setting: protein loading in microbubbles 5 mg, 5 minutes incubation.

As for Tissue Plasminogen Activator [tPA], under “After 24 hrs”, the “Number of particles/mL” value is 1.3 × 10^9 particles/mL, the Number wt mean is 2.20 μ and the Volume wt mean is on record as 24.4 μ. Moreover, under setting [1], the “Number of particles/mL” value is recorded as 1.1 × 10^9 particles/mL, the Number wt mean was found to be 2.27 μ and the Volume wt mean stood at 23.5 μ.

With Streptokinase, the “Number of particles/mL” value is 1.1 × 10^9 particles/mL under setting [2], 1.1 × 10^9 particles/mL under setting [3] and 0.5 × 10^9 particles/mL under setting [4]. The Number wt mean by setting is: under setting [2], 1.79 μ; under setting [3], 1.87 μ; under setting [4], 2.44 μ. For the same substance, the Volume wt mean is listed as 13.6 μ under setting [2], 17.1 μ under setting [3] and 52.9 μ under setting [4].
